From patent US20220135694A1, “NOVEL CD40-BINDING ANTIBODIES” (LAVA THERAPEUTICS B.V., priority 2019, published 2022)

How the values were obtained:
[1] = tested on: CD40+ CII target cells; assay: Cytotoxicity assay: CII target cells with Vγ9Vδ2-T cells; assay type: cell-based, human; details: 1:1 ratio
Experimental: (§1) CD40^+ CII cells and Vγ9Vδ2-T cells were grown as described in Example 7.
CII target cells were labeled with carboxyfluorescein succinimidyl ester (CFSE; C1157, Thermo Fisher Scientific) and incubated with VHH or medium control for 30 minutes at 37° C. Target cells were then cocultured overnight with Vγ9Vδ2-T cell lines in a 1:1 ratio.
Viability was measured as described in Example 4.

[2] = tested on: Vγ9Vδ2-T cells; assay: Cytokine and degranulation assay: Vγ9Vδ2-T cell lines with CD40+ CII cells; assay type: cell-based, human; details: for degranulation of Vγ9Vδ2-T cells (CD107a): FIG. 10A
Experimental: as §1
Vγ9Vδ2-T cell lines were incubated with V19S76K-5C8 or medium control for 30 minutes at 37° C. Subsequently, Vγ9Vδ2-T cells were cocultured with CII cells for 4 hours in a 1:1 ratio in the presence of Brefeldin A (10 μg/mL; B7651, Merck), GolgiStop (554724) and PECy7-conjugated anti-CD107a (561348, both BD Biosciences). Cells were then washed and surface staining was performed with Fixable Viability Dye eFluor506 (65-0866-14), AF700-conjugated anti-CD3 (56-0038-82, both Thermo Fisher Scientific) and FITC-conjugated anti-Vγ9-TCR (IM1463, Beckman Coulter) antibodies. Cytofix/Cytoperm reagent (554722) was used for detection of intracellular cytokines with BUV395-conjugated anti-IFN-γ (563563), […] anti-TNF-α (563418, all BD Biosciences) and PE/Dazzle594-conjugated anti-IL-2 (500343, Biolegend).
Samples were measured on an LSRFortessa cytometer (BD Biosciences) and analyzed with Flowjo MacV10.

[3] = molecular target: T1, Vγ9Vδ2+ cells (Homo sapiens, UniProt A0JD36); assay: Bispecific VHH binding to Vγ9Vδ2-T cell lines, flow cytometry, non-linear regression; details: FIGS. 6A and B, read-out: apparent Kd
T1 construct: endogenous in cells; host or cells: healthy donor-derived, expanded Vγ9Vδ2-T cell lines
T1 sequence (A0JD36 20-115): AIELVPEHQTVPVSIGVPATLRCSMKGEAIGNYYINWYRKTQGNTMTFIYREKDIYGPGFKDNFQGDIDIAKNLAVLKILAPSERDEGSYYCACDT
Experimental: The CLL-derived cell line CII was grown in complete IMDM. Purified Vγ9Vδ2-T cell lines were generated as described previously (de Bruin et al. (2017), Oncoimmunology 7(1): e1375641). In short, Vδ2^+-T cells were isolated from healthy donor (HD) PBMCs using FITC-conjugated anti-Vδ2 TCR (2257030, Sony, San Jose, Calif.) in combination with anti-mouse IgG microbeads (Miltenyi Biotec, Bergisch Gladbach, Germany) and cultured weekly with irradiated feeder mix consisting of PBMCs from 2 HDs, JY cells, IL-7 (10 U/mL), IL-15 (10 ng/mL, R&D Systems) and phytohaemagglutinin (PHA; R30852801, Thermo Fisher Scientific).
Purity of Vγ9Vδ2-T cell lines was maintained at >90%.
VHH binding was tested as described in Example 6.
After 48 hours, cells were analyzed by flow cytometry as described in Example 2.

[4] = tested on: Vγ9Vδ2-T cells present in the bone marrow of MM patients; assay: Activation of Vγ9Vδ2-T cells in bone marrow mononuclear cells from MM patients; assay type: cell-based, human; details: 10 nM, overnight
Experimental: (§2) FIG. 17: V19S76K-5C8 is active against primary multiple myeloma. (A) Example of CD40 expression on primary MM cells, as detected using anti-CD40 PE antibody, clone MAB89, Beckman Couter, IM1936U. Representative histograms of 4 donors (B) Bone marrow of MM patients was cultured overnight in the presence or absence of healthy donor-derived Vγ9Vδ2-T cells in a 1:1 (Vγ9Vδ2-T:plasma cell) ratio in the absence or presence of V19S76K-5C8 (10 μM or 10 nM). Live plasma cells were quantified by flow cytometry using counting beads (n=5). (C, D) Mononuclear cells from the bone marrow of MM patients were cultured overnight with V19S76K-5C8 (VHH; 10 nM), aminobisphosphonate (ABP; 10 μM zoledronic acid (positive control)) or medium control in the presence of brefeldin, monensin and anti-CD107a to measure (C) cytokine production and (D) degranulation by flow cytometry (n=6). Data are presented as mean and SEM. *P<0.05, **P<0.01. (B-D: repeated-measures one-way ANOVA followed by Dunnett's post hoc test compared to condition without antibody).
Similarly, Vγ9Vδ2-T cells present in bone marrow mononuclear cells from MM patients degranulated after culture with the bispecific VHH V19S76K-5C8 (FIG. 17D).

[5] = tested on: primary MM cells; assay: Lysis of primary multiple myeloma cells by healthy donor-derived Vγ9Vδ2-T cells; assay type: cell-based, human; details: overnight with healthy donor-derived Vγ9Vδ2-T cells, 1:1; FIG. 17B
Experimental: as §2
Because CD40 is also expressed on primary multiple myeloma (MM) cells (Pellat-Deceunynck et al. (1994) Blood 84:2597) (FIG. 17A) and CD40 stimulation exerts various biological effects, including proliferation of MM cells, we assessed the efficacy of V19S76K-5C8 in primary bone marrow samples from MM patients.

[6] = tested on: CD19+ CLL cells; assay: Cytotoxicity of CLL cells by autologous CD3+ cells, live cell count with counting beads; assay type: cell-based, human; details: 10 nM, overnight, CD3+:CD19+ 10:1, autologous; FIG. 16
Experimental: PBMCs from CLL patients were obtained, cryopreserved and thawed as described in Example 3.
CD3^+ cells were isolated from CLL PBMCs using magnetic beads (purity ≥93%; 130-050-101, Miltenyi Biotec) to simultaneously enrich for Vγ9Vδ2-T cells. CD19^+ CLL cells were isolated from the same sample using magnetic beads (purity ≥93%; 130-050-301, Miltenyi Biotec). CD3^+ cells were cultured overnight with CD19^+ CLL cells in a 10:1 ratio with V19S76K-5C8 (10 nM) or medium control.
Samples were incubated with Fixable Viability Dye eF780 (65-0865-14), PerCPeF710-conjugated anti-CD3), PE-conjugated anti-CD5 (12-0059-42, all Thermo Fisher Scientific) and FITC-conjugated anti-CD20 (A07772, Beckman Coulter) antibodies. Live CLL cells were then quantified using counting beads (01-1234-42, Thermo Fisher Scientific) on a FACSCanto cytometer (BD Biosciences).

[7] = tested on: primary CLL cells; assay: Venetoclax sensitivity and Bcl-xL expression of rmCD40L-stimulated primary CLL cells; assay type: cell-based, human; details: V19S76K-5C8 1000 nM before rmCD40L 48 h

B1: V19S76K-5C8: tag-less bispecific anti-CD40-anti-Vγ9Vδ2-TCR VHH, SEQ ID NO:23 (protein)
VHH: QVQLQESGGGLVQAGGSLRLSCAASGRTFGRSAMGWFRQAPGKEREFVAAIGTRGGSTKYADSVKGRFTISTDNAKNTVYLQMDSLKPEDTAVYRCAVRGPGYPSAAIFQDEYHYWGQGTQVTVSSGGGGSEVQLVESGGGLVQAGGSLRLSCAASGRPFSNYAMGWFRQAPGKEREFVAAISWSGGSTSYADSVKGRFTISRDNAKNTVYLQMNSPKPEDTAIYYCAAQFSGADYGFGRLGIRGYEYDYWGQGTQVTVSS
modifications: antibody sequence
EC50 ([1]; lysis of CII target cells with Vγ9Vδ2-T cells, FIG. 11B, read-out: half maximal effective concentration): 9.1 µM
lysis of CII target cells ([1]; overnight with Vγ9Vδ2-T cells, FIG. 11A): increased markedly
degranulation of Vγ9Vδ2-T cells (CD107a) ([2]; CD40+ CII cells not present): did not induce this level of degranulation
degranulation of Vγ9Vδ2-T cells (CD107a) ([2]; with CD40+ CII cells, 1:1 ratio, 4 hours): the large majority of Vγ9Vδ2-T cells degranulated
IFN-γ, TNF-α and IL-2 production by Vγ9Vδ2-T cells ([2]; with or without CD40+ CII cells, FIG. 10B-D): A similar pattern was observed
Kd [3]: 0.0012 µM
production of IFN-γ and TNF-α by bone marrow Vγ9Vδ2-T cells ([4]; FIG. 17C): triggered to produce the pro-inflammatory cytokines IFN-γ and TNF-α
degranulation of bone marrow Vγ9Vδ2-T cells ([4]; FIG. 17D): degranulated
lysis of primary MM cells [5]: lysed primary MM cells
live CLL cells versus medium control [6]: Fewer CLL cells were alive
sensitivity to venetoclax of rmCD40L-stimulated primary CLL cells ([7]; then venetoclax 24 h, FIG. 9A): as sensitive to venetoclax as unstimulated CLL cells
Bcl-xL expression ([7]; FIG. 9B): returned to unstimulated levels
